Legend:
[1] = target: T1, bovine serum albumin (bovine, UniProt P02769 25-607); assay: ELISA, protein coated at 10 ug/ml
T1 construct: also called BSA

[2] = target: lysozyme (Gallus gallus (Chicken), UniProt P00698 19-147); assay: ELISA, protein coated at 10 ug/ml
[3] = target: T2, anthrax lethal factor (LF) (Bacillus anthracis, UniProt P15917 34-809); assay: cell-based or functional assay
T2 sequence: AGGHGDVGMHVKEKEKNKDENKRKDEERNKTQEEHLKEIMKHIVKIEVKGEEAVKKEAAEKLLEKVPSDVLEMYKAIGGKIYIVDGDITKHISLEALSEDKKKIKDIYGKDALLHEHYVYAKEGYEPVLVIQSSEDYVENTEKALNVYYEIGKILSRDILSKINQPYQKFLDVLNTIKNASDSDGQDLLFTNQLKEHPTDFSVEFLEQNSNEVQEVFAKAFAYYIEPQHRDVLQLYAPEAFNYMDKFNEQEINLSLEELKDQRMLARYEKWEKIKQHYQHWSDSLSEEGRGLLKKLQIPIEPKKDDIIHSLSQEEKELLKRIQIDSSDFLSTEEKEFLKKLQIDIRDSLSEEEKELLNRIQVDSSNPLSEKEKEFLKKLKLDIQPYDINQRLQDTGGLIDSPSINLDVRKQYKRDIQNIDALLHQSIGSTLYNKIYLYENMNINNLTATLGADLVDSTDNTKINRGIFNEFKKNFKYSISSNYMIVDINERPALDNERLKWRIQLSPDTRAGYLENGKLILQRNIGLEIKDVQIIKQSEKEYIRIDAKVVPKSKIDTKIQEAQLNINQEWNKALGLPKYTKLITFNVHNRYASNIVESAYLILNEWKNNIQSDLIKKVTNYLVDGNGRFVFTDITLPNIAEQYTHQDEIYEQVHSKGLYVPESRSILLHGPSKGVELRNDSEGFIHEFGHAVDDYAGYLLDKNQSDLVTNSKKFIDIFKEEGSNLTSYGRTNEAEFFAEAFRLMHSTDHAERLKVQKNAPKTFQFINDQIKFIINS

[4] = target: T3, anthrax edema factor (EF) (Bacillus anthracis, UniProt P40136 34-800); assay: Western blot of purified toxin proteins (SDS-PAGE) probed with the mAb
T3 sequence: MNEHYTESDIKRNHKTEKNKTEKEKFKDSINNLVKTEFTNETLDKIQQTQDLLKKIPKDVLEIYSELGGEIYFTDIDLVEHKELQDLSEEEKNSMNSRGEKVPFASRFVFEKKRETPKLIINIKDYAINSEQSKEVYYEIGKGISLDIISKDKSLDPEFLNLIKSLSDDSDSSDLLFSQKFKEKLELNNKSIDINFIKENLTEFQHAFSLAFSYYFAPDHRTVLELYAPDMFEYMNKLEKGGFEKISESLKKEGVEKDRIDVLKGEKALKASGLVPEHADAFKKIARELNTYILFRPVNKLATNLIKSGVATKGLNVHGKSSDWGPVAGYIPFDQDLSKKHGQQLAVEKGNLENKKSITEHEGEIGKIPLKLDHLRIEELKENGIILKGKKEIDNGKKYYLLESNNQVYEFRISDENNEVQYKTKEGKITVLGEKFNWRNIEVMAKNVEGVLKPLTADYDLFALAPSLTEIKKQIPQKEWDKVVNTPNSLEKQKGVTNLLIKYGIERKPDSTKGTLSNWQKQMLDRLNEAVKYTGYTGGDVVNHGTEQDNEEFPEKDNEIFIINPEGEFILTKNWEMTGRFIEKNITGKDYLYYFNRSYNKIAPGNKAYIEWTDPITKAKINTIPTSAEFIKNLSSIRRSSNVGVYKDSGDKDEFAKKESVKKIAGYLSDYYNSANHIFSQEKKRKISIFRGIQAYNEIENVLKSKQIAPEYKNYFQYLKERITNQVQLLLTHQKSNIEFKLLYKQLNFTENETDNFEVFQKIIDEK

[5] = target: anthrax protective antigen (PA), purified (Bacillus anthracis, UniProt P13423 30-764); assay: Western blot of purified toxin proteins; PA as negative control
Chain of anthrax protective antigen (PA), purified (P13423 30-764 limits assumed): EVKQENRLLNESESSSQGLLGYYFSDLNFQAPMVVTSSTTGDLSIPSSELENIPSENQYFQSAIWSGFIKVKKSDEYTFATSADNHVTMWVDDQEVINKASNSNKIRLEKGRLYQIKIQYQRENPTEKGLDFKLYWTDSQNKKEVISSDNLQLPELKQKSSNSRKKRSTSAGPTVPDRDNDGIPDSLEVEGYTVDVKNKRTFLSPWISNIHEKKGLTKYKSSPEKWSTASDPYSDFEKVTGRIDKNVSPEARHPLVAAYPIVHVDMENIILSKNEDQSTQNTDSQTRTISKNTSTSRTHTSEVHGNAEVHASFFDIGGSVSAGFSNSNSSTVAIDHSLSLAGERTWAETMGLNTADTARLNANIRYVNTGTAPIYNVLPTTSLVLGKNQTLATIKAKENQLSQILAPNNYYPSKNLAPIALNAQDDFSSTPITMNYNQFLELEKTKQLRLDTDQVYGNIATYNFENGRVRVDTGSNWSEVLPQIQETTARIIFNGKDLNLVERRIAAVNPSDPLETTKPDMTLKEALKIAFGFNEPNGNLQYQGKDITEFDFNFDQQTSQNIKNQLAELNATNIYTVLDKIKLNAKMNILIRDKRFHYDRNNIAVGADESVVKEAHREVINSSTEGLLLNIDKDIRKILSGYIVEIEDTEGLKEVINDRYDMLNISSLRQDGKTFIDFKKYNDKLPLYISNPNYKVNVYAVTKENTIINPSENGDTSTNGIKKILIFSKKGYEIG

[6] = target: T3, anthrax edema factor (EF); assay: Western blot of purified toxin proteins (SDS-PAGE) probed with the mAb; remark: listed apart in the source
[7] = target: T3, anthrax edema factor (EF); assay: cell-based or functional assay
[8] = target: T3, anthrax edema factor (EF); assay: SPR (BIAcore), IgG immobilized on CM5 chip, recombinant EF injected, 1:1 model
[9] = target: T3, anthrax edema factor (EF)
[10] = target: T2, anthrax lethal factor (LF); assay: SPR (BIAcore 3000), LF immobilized on CM3 chip, Fab injected
[11] = target: T2, anthrax lethal factor (LF); assay: ELISA, LF coated at 5 ug/ml
[12] = target: T3, anthrax edema factor (EF); assay: ELISA, EF coated at 5 ug/ml

T1 sequence (P02769 25-607 limits assumed): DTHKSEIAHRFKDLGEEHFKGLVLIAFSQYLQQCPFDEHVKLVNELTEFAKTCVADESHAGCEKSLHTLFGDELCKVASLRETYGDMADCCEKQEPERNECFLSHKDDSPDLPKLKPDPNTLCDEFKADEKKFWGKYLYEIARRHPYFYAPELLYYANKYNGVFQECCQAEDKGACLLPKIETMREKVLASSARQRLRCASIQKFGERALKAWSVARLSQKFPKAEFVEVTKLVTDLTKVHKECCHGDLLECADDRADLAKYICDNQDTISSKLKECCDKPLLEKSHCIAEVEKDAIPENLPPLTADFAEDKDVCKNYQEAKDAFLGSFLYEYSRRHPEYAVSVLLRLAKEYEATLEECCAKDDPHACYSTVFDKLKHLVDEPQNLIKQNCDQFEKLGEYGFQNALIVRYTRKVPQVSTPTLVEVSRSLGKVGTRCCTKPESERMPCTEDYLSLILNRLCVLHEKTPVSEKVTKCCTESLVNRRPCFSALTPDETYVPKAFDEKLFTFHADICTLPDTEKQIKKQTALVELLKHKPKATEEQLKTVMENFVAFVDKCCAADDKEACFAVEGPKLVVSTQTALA
Chain of lysozyme (P00698 19-147 limits assumed): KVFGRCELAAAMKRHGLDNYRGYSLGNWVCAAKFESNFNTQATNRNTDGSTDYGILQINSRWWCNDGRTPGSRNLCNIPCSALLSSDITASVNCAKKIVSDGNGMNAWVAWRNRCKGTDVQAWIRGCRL

B1: anti-anthrax LF10E monoclonal antibody (IgG) (antibody, V domains shown)
VH: EVQLLESGGGLVKPGGSLRLTCAASGFTFSSYAMHWVRQAPEKGLEWVSSISGSGGGTWYADSVKGRFTISRDNSRNTLYLQLNSLRAEDTAVYYCARPKYTGYENPFDYWGQGTLVTVS
VL: ELQMTQSPSSLSASVGDRVTITCRASQDIRNYLAWYQQEPGKAPRLLIYYASKLQSGVPSRFSGRGSGTDYSLTISSLQPEDFATYYCQQYDSVPLTFGGGTKMEIKR
[1]
  binding result: no binding
[2]
  binding result: no binding
[3]
  EC50 of neutralization of LT toxicity, RAW264.7 macrophage viability (MTT): 0.0156 µg/mL
[4]
  binding result: no binding
[5]
  binding result: no binding

B2: anti-anthrax LF11H monoclonal antibody (IgG) (antibody, V domains shown)
VH: VQLLEQSGAEVKKPGESLKISCKGSGYSFTNYWIGWVRQMPGKGLEWMGIIYPDDSDTRYSPSFQGQVTISFDKSINTAYLQWSSLKASDTAIYYCARALWFRDWGKMDVWGKGTTVTVS
VL: ELQMTQSPSSLSASVGDRVTITCRASQGIRNDLGWYQQKPGKAPKLLIYAASSLQSGVPSRFSGSGSGTDFTLTISSLQPEDFATYYCLQDYTYPWTFGQGTKLEIKR
[1]
  binding result: no binding
[2]
  binding result: no binding
[3]
  EC50 of neutralization of LT toxicity, RAW264.7 macrophage viability (MTT): 62.6 µg/mL
[6]
  binding result: no binding
[5]
  binding result: no binding

B3: anti-anthrax EF13D monoclonal antibody (IgG) (antibody, V domains shown)
VH: EVQLLESGAEVKKPGSSVKVSCKVSGGTFSSFGISWVRQAPGQGLEWMGLIIPILGTANYAQKFQGRLTITADESTSTVYMELSSLRSEDTAVYYCATDPYHNWGEWDLDYWGQGTLVTVS
VL: AAELTQSPSSLSASVGDRVSITCRASQSISNYLSWYQQKPGKAPQLLIYDASTLQSGVPSRFSGSGSGTDFTLTISSLQPEDFATYYCQCGYGTYPTFGGGTQVEIKR
[1]
  binding result: no binding
[2]
  binding result: no binding
[7]
  EC50 of inhibition of ET-mediated cAMP production in RAW264.7 cells: 0.028 µg/mL
[8]
  Kd: 9.7 nM
  koff: 0.0004 s⁻¹
  kon: 41200 M⁻¹ s⁻¹

B4: anti-EF clone EF14H (antibody, V domains shown)
VH: VQLLEESGGGLVKPGGSLRLSCAASGFTFSNYSMNWVRQAPGKGLEWVGFIRTKAKGGTTEYAASVKGRFTISRDDSKSIAYLQMNSLKTEDTAVYYCTPAGIIIRLVTPIYYYYMDVWGKGTTVTVS
VL: AAELTQSPSSLSASVGDRVTITCRASQGIRNYLAWYQQKPGKVPKLLIYAASTLQSGVPSRFSGSGSGTDFTLTISSLQPEDVATYYCQKYSSAPFTFGPGTKVGIKR
[1]
  binding result: no binding
[2]
  binding result: no binding
[9]
  EC50 (read off the curve): ~0.05 µg/mL

B5: anti-anthrax LF10E Fab (Fab, V domains shown)
VH: EVQLLESGGGLVKPGGSLRLTCAASGFTFSSYAMHWVRQAPEKGLEWVSSISGSGGGTWYADSVKGRFTISRDNSRNTLYLQLNSLRAEDTAVYYCARPKYTGYENPFDYWGQGTLVTVS
VL: ELQMTQSPSSLSASVGDRVTITCRASQDIRNYLAWYQQEPGKAPRLLIYYASKLQSGVPSRFSGRGSGTDYSLTISSLQPEDFATYYCQQYDSVPLTFGGGTKMEIKR
[10]
  Kd: 0.69 nM
  koff: 0.00019 s⁻¹
  kon: 270000 M⁻¹ s⁻¹

B6: anti-LF clone LF9D (antibody, V domains shown)
VH: EVQLLESGGGLVKPGGSLRLSCAASGFTFSSYAMHWVRQTPEKGLEWVSTISSIGGSTWYSDSVKGRFTISRDNSKNTLFLHMKSLRAEDTAVYYCARDFFSQVGWSTPNNWFDPWGQGTLVTVS
VL: AAELTQSPSTLSASVGDRVTITCRASQGIATYLNWYQQIPGKAPKLLIYAASTLESGVPSRFSGSGSGAEFTLTISSLQPGDFATYYCQQFYSMPLTFGGGTKVEIKR
[1]
  binding result: no binding
[2]
  binding result: no binding
[11]
  binding result: binds

B7: anti-EF clone EF15A (antibody, V domains shown)
VH: VQLLEESGGGVVQPGRSLRLSCTASGFTFSNYGMQWVRQAPGKRLEWVAFISYSGSNKQYADSVRGRFTISRDNSKNILYLQMNSLRSEDTAVYYCARDSHYLDYLPDAFDYWGQGTVVTVS
VL: ELVMTQSPSLLSASVGDRVTITCRASQGISNYLAWFQQKPGKAPKRLIFTAYRLESGVPSRFSGSMSGTEFTLTISSLEPEDFATYYCLQHSAYPPTFGQGTKLEIKR
[1]
  binding result: no binding
[2]
  binding result: no binding
[12]
  binding result: binds

B8: anti-anthrax LF11H Fab (Fab, V domains shown)
VH: VQLLEQSGAEVKKPGESLKISCKGSGYSFTNYWIGWVRQMPGKGLEWMGIIYPDDSDTRYSPSFQGQVTISFDKSINTAYLQWSSLKASDTAIYYCARALWFRDWGKMDVWGKGTTVTVS
VL: ELQMTQSPSSLSASVGDRVTITCRASQGIRNDLGWYQQKPGKAPKLLIYAASSLQSGVPSRFSGSGSGTDFTLTISSLQPEDFATYYCLQDYTYPWTFGQGTKLEIKR
[10]
  Kd: 7.4 nM
  koff: 0.001 s⁻¹
  kon: 130000 M⁻¹ s⁻¹

From US20100119520A1 (US Dept. of Health and Human Services, published 2010)
